Reference: the supplement of paper PMC7125110
± gives the standard error. For part of these data: Fewer inactive variants are shown than the library holds.

B1: glmS ribozyme (parent)
chain: AUAAAAGCGCCAGAACUACAGAAAUGUAGUUGACGAGGAGGAGGUUUAUCGAAUUUUCGGCGGAUGCCUCCAAA

What was measured:
Conditions in all cases: with glucosamine-6-phosphate
glucosamine-6-phosphate [1] = variants of: B1; assay: kcat; higher = faster cleavage; RNA array
How it was run: (§1)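 Over ~14 h at 37 °C, tiles were imaged as glucosamine-6-phosphate (40 μM to 10 mM) in HEPES/KCl/Mg(OAc)2 buffer flowed across sequenced MiSeq chips. The chips carried barcoded ribozyme variants transcribed in situ by E. coli RNA polymerase and tracked with a hybridised Cy3 probe. After normalisation to baseline and to non-cleaving reference variants, one- or two-exponential decay fits of per-tile medians gave kobs. kcat and KM followed from weighted Michaelis–Menten fits across concentrations.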

glucosamine-6-phosphate [2] = variants of: B1; assay: KM; higher = weaker cofactor use; RNA array
How it was run: as §1

glucosamine-6-phosphate [3] = variants of: B1; assay: self-cleavage kobs at 40 uM GlcN6P; higher = faster cleavage; RNA array
How it was run: as §1

glucosamine-6-phosphate [4] = variants of: B1; assay: self-cleavage kobs at 160 uM GlcN6P; higher = faster cleavage; RNA array
How it was run: as §1

glucosamine-6-phosphate [5] = variants of: B1; assay: self-cleavage kobs at 640 uM GlcN6P; higher = faster cleavage; RNA array
How it was run: as §1

glucosamine-6-phosphate [6] = variants of: B1; assay: self-cleavage kobs at 2500 uM GlcN6P; higher = faster cleavage; RNA array
How it was run: as §1

glucosamine-6-phosphate [7] = variants of: B1; assay: self-cleavage kobs at 10000 uM GlcN6P; higher = faster cleavage; RNA array
How it was run: as §1

Variant	kcat (glucosamine-6-phosphate [1]) [s⁻¹]	KM (glucosamine-6-phosphate [2]) [µM]	self-cleavage kobs at 40 uM GlcN6P (glucosamine-6-phosphate [3]) [s⁻¹]	self-cleavage kobs at 160 uM GlcN6P (glucosamine-6-phosphate [4]) [s⁻¹]	self-cleavage kobs at 640 uM GlcN6P (glucosamine-6-phosphate [5]) [s⁻¹]	self-cleavage kobs at 2500 uM GlcN6P (glucosamine-6-phosphate [6]) [s⁻¹]	self-cleavage kobs at 10000 uM GlcN6P (glucosamine-6-phosphate [7]) [s⁻¹]
U47C C68U	0.00114 ± 0.0002	1650 ± 540	3.33e-05 ± 1.2e-05	0.000149 ± 3.6e-05	0.000286 ± 4.6e-05	0.000609 ± 0.0001	0.00107 ± 0.00015
A48G U54A	0.000153 ± 2.2e-05	1650 ± 590	–	–	3.77e-05 ± 9.3e-06	0.000115 ± 1.8e-05	0.000123 ± 1.8e-05
A48G A52G	1.36e-05 ± 9.9e-07	–	–	–	< 1e-05	–	–
U49G C71G	7.69e-05 ± 4.8e-06	427 ± 120	–	–	4.8e-05 ± 8.8e-06	6.83e-05 ± 1.3e-05	7.21e-05 ± 9.4e-06
U49A G66C	< 1e-05	–	–	–	< 1e-05	–	–
C50U C70A	2.87e-05 ± 6.9e-06	–	–	–	3.61e-05 ± 1.4e-05	3.43e-05 ± 1.5e-05	–
A52G C68A C70U	1.69e-05 ± 3.4e-06	–	–	–	–	–	–
G51U U65G G66C	< 1e-05	–	–	–	< 1e-05	–	< 1e-05
A48G C71G	1.72e-05 ± 7.5e-06	–	–	–	–	–	–
U47G C50G C68U	6.02e-05 ± 2e-05	–	–	7.17e-05 ± 9.5e-06	–	7.59e-05 ± 1.6e-05	3.03e-05 ± 1.3e-05
U49G C50U A64U C67G C70A	3.56e-05 ± 1.6e-05	–	–	–	4.15e-05 ± 2e-05	–	–
A52U U65A U69C	1.13e-05 ± 8.7e-07	1400 ± 420	–	–	–	–	–
U49G G59A	< 1e-05	–	< 1e-05	< 1e-05	–	–	–
U47G U69G	5.3e-05 ± 8.9e-06	–	4.11e-05 ± 9e-06	5.87e-05 ± 1.3e-05	7.19e-05 ± 9.1e-06	7.13e-05 ± 9.6e-06	4.09e-05 ± 5.2e-06
C50G C67A	0.000178 ± 2.6e-05	–	9.53e-05 ± 1.2e-05	0.000153 ± 2e-05	0.000259 ± 3.2e-05	0.000183 ± 2.4e-05	0.000145 ± 1.9e-05
A48U C50G C67A C68U	1.99e-05 ± 2.7e-06	–	–	–	–	–	–
G51A U54A G59A C68G	2.9e-05 ± 7.6e-06	–	–	–	–	–	–
C50U C68G	4.93e-05 ± 1.9e-05	–	–	3.88e-05 ± 1.6e-05	6.55e-05 ± 1.1e-05	7.89e-05 ± 1.4e-05	–
C50U C71A	2.1e-05 ± 3.7e-06	–	–	–	2.36e-05 ± 1.1e-05	2.3e-05 ± 8.6e-06	–
U49A C71A	< 1e-05	–	–	–	–	–	–
U49A C71G	2.68e-05 ± 1e-05	–	–	–	3.32e-05 ± 1.2e-05	–	–
A52C U57G	9.64e-05 ± 1.4e-05	2300 ± 960	–	< 1e-05	–	5.77e-05 ± 1.5e-05	7.59e-05 ± 1.6e-05

Variant	kcat (glucosamine-6-phosphate [1]) [s⁻¹]	KM (glucosamine-6-phosphate [2]) [µM]	self-cleavage kobs at 40 uM GlcN6P (glucosamine-6-phosphate [3]) [s⁻¹]	self-cleavage kobs at 160 uM GlcN6P (glucosamine-6-phosphate [4]) [s⁻¹]	self-cleavage kobs at 640 uM GlcN6P (glucosamine-6-phosphate [5]) [s⁻¹]	self-cleavage kobs at 2500 uM GlcN6P (glucosamine-6-phosphate [6]) [s⁻¹]	self-cleavage kobs at 10000 uM GlcN6P (glucosamine-6-phosphate [7]) [s⁻¹]
A48U U65C	4.55e-05 ± 6.5e-06	–	< 1e-05	–	–	4.16e-05 ± 1.4e-05	3.92e-05 ± 1.5e-05
C50G A64U	5.29e-05 ± 1.7e-05	–	–	6.24e-05 ± 1.5e-05	9.1e-05 ± 2.3e-05	5.11e-05 ± 1.7e-05	–
U49G C67G	8.59e-05 ± 1e-05	–	–	–	3.79e-05 ± 1e-05	4.61e-05 ± 8.8e-06	7.87e-05 ± 6.7e-06
C50A G51A	< 1e-05	–	–	–	–	–	< 1e-05
C50G U55G C67G	2.81e-05 ± 6.9e-06	–	–	–	–	–	–
U47G A48U	0.000199 ± 1.8e-05	905 ± 230	–	3.01e-05 ± 1.4e-05	8.89e-05 ± 1.5e-05	0.000128 ± 2e-05	0.000196 ± 2.4e-05
U47G A48G	8.61e-05 ± 8.6e-06	–	–	–	4.31e-05 ± 1.6e-05	8.59e-05 ± 1.7e-05	7.67e-05 ± 1.3e-05
C50U U69G	2.82e-05 ± 7.6e-06	–	–	3.94e-05 ± 1.2e-05	–	3.39e-05 ± 1.4e-05	–
C50U U69A	2.06e-05 ± 3.7e-06	–	–	–	–	–	–
C50U U69C	2.88e-05 ± 9.3e-06	–	–	4.48e-05 ± 1.5e-05	–	4.75e-05 ± 1.5e-05	–
A48C U56A	0.000146 ± 3.6e-05	–	–	–	–	7.8e-05 ± 1.6e-05	0.000107 ± 1.7e-05
A48C U56G	0.000214 ± 2.7e-05	5570 ± 1300	–	–	–	6.9e-05 ± 1.3e-05	0.000135 ± 2.8e-05
C50A G60C	1.48e-05 ± 7e-06	–	–	–	–	–	–
C50G C61A	0.000122 ± 1.7e-05	–	9.57e-05 ± 9.4e-06	0.00018 ± 2.4e-05	0.000166 ± 1.7e-05	9.96e-05 ± 1.4e-05	0.000113 ± 9e-06
C50G C61G	0.000119 ± 1.7e-05	–	8.54e-05 ± 1.1e-05	0.000156 ± 1.9e-05	0.000115 ± 1.6e-05	0.000161 ± 2e-05	9.9e-05 ± 1e-05
A48U U57C U69G C70U	< 1e-05	–	–	–	–	–	–
C50G G60U C61U U69A	7.69e-05 ± 1.1e-05	–	–	0.000102 ± 3.2e-05	7.91e-05 ± 2.6e-05	7.43e-05 ± 1e-05	–
U49A U69G	5.15e-05 ± 2.2e-05	–	–	–	4.76e-05 ± 1.8e-05	8.54e-05 ± 1.8e-05	–
C50A G59U	< 1e-05	181 ± 24	< 1e-05	< 1e-05	< 1e-05	–	< 1e-05
A52U C67G C70G	2.5e-05 ± 7.5e-06	–	–	–	–	–	–
A52G U65C	3.32e-05 ± 1.6e-06	248 ± 83	–	–	–	–	–
